The source of these data is US20240327815A1 (Zymeworks, published 2024).

The target in experiment [1] is Alpha SARS-CoV-2 spike on pseudotyped lentivirus (SARS-CoV-2, UniProt P0DTC2 14-1273). In words: cell-based or functional assay.
Experiment [2] deals with Beta SARS-CoV-2 spike on pseudotyped lentivirus (SARS-CoV-2, UniProt P0DTC2 14-1273). Description: cell-based or functional assay.
For experiment [3], the target named is P.1 (Gamma) SARS-CoV-2 spike protein, plate-coated (MSD) (SARS-CoV-2, UniProt P0DTC2 14-1208). Description: MSD competition vs labelled ACE2.

B1: REGN10987 (Imdevimab) (antibody, V domains shown)
VH: QVQLVESGGGVVQPGRSLRLSCAASGFTFSNYAMYWVRQAPGKGLEWVAVISYDGSNKYYADSVKGRFTISRDNSKNTLYLQMNSLRTEDTAVYYCASGSDYGDYLLVYWGQGTLVTVSS
VL: QSALTQPASVSGSPGQSITISCTGTSSDVGGYNYVSWYQQHPGKAPKLMIYDVSKRPSGVSNRFSGSKSGNTASLTISGLQSEDEADYYCNSLTSISTWVFGGGTKLTVLR
Take B1: the entries for the “Pseudovirus Neutralization (IC50, nM)” value in experiment [1] and in experiment [2] were 0.13 nM and 41.1 nM, respectively.

B2: Etesevimab (antibody, V domains shown)
VH: EVQLVESGGGLVQPGGSLRLSCAASGFTVSSNYMSWVRQAPGKGLEWVSVIYSGGSTFYADSVKGRFTISRDNSMNTLFLQMNSLRAEDTAVYYCARVLPMYGDYLDYWGQGTLVTVSS
VL: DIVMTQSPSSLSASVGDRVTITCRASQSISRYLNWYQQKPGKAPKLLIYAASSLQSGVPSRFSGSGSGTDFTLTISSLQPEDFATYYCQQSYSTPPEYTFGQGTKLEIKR
As to B2, in experiment [3], the IC50 was found to be 0.08 nM.

B3: Bamlanivimab (antibody, V domains shown)
VH: QVQLVQSGAEVKKPGSSVKVSCKASGGTFSNYAISWVRQAPGQGLEWMGRIIPILGIANYAQKFQGRVTITADKSTSTAYMELSSLRSEDTAVYYCARGYYEARHYYYYYAMDVWGQGTAVTVSS
VL: not shown
Turning to B3, the results for the “Pseudovirus Neutralization (IC50, nM)” value in experiment [1] and in experiment [2] were 1.9 nM and more than 100 nM, respectively.

B4: REGN10933 (Casirivimab) (antibody, V domains shown)
VH: QVQLVESGGGLVKPGGSLRLSCAASGFTFSDYYMSWIRQAPGKGLEWVSYITYSGSTIYYADSVKGRFTISRDNAKSSLYLQMNSLRAEDTAVYYCARDRGTTMVPFDYWGQGTLVTVSS
VL: DIQMTQSPSSLSASVGDRVTITCQASQDITNYLNWYQQKPGKAPKLLIYAASNLETGVPSRFSGSGSGTDFTFTISGLQPEDIATYYCQQYDNLPLTFGGGTKVEIKR
As to B4, in experiment [1], the “Pseudovirus Neutralization (IC50, nM)” value is 0.05 nM.

One may read the IC50 as the concentration that inhibits the measured activity by half. Lower therefore signals inhibition by little substance.
